# Where a chain is given by its changes, count along the chain named.
# B1: anti-PD-1 scFv-Fc clone 40 (scFv linked to murine Fc) (Fc fusion)
# chain: QSVLTQPPSASGTPGQRVTISCSGSRSNIGENTVNWYQQLPGTAPKLLIYSNNQRPSGVPDRFSGSKSGTSASLAISGLHSDDEADYFCAAWDDRLNGYVFGTGTKVTVLGGGGGSGGGGSGGGGSQVQLVQSGPEVKKPGASVKVSCKASGYTFTNYGFTWVRQAPGQGLEWMGWIGAQKGDTEYAQKFQGRVTMTTDTSTSTVYLELRSLRSDDTAVYYCARSQGVPFDSWGQGTLVTVSS
# notes: also called PD-1-40; not shown: murine Fc (mouse IgG1a) domain
# B2: anti-PD-1 scFv-Fc clone 23 (scFv linked to murine Fc) (Fc fusion)
# chain: QAVLTQPPSMSEAPRQRVTISCSGSSSNIGNNAVNWYQQLPGKAPKLLIYYNDLLSSGVSDRFSGSKSGTSASLAISGLQSEDEADYYCAAWDDSVNGYVFGTGTKVTVLGGSRGGGGSGGGGSGGGGSEVQLVQSGAEVKKPGDSVKVSCKASGYTFTRFGFSWVRQAPGQGLEWMGWISVNNGNTKYAQKYQGRVTMTTDTSTSTAYMELRSLRSDDTAVYYCARYMYGRRDSWGQGTLVTVSS
# notes: also called PD1-23; not shown: murine Fc (mouse IgG1a) domain
# B3: anti-PD-1 scFv-Fc clone 26 (scFv linked to murine Fc) (Fc fusion)
# chain: QSVLTQPPSVSVAPGKTARITCGGNNIGSKSVHWYQQKPGQAPVLVIYYDSDRPSGIPERFSGSNSGNTATLTISRVEAGDEADYYCQVWDNHSDVVFGGGTKLTVLGGGGGSGGGGSGGGGSQVQLVESGGGLVQPGGSLRLSCAASGYTRNKFSSYAMSWVRQAPGKGLEWVSGISGSGGTTYYADSVKGRFTISRDNSKNTQYLQLDSLRAEDTAVYYCARWYSSYYDVWGQGTLVTVSS
# notes: also called PD1-26; not shown: murine Fc (mouse IgG1a) domain
# B4: anti-PD-1 clone 23 monoclonal antibody (antibody, V domains shown)
# VH: EVQLVQSGAEVKKPGDSVKVSCKASGYTFTRFGFSWVRQAPGQGLEWMGWISVNNGNTKYAQKYQGRVTMTTDTSTSTAYMELRSLRSDDTAVYYCARYMYGRRDSWGQGTLVTVSS
# VL: QAVLTQPPSMSEAPRQRVTISCSGSSSNIGNNAVNWYQQLPGKAPKLLIYYNDLLSSGVSDRFSGSKSGTSASLAISGLQSEDEADYYCAAWDDSVNGYVFGTGTKVTVLG
# notes: also called Clone 23 mAb; ET130-23
# B5: anti-PD-1 clone 26 monoclonal antibody (antibody, V domains shown)
# VH: QVQLVESGGGLVQPGGSLRLSCAASGYTRNKFSSYAMSWVRQAPGKGLEWVSGISGSGGTTYYADSVKGRFTISRDNSKNTQYLQLDSLRAEDTAVYYCARWYSSYYDVWGQGTLVTVSS
# VL: QSVLTQPPSVSVAPGKTARITCGGNNIGSKSVHWYQQKPGQAPVLVIYYDSDRPSGIPERFSGSNSGNTATLTISRVEAGDEADYYCQVWDNHSDVVFGGGTKLTVLG
# notes: also called Clone 26 mAb; ET130-26
# B6: anti-PD-1 clone 27 monoclonal antibody (antibody, V domains shown)
# VH: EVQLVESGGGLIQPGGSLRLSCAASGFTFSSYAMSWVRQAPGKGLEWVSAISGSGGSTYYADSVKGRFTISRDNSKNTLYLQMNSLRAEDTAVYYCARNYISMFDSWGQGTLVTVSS
# VL: B5 VL with K38R, N92S, H93S, V96Y, G100I, L104V
# notes: also called Clone 27 mAb; E27 mAb
# Biological target: human PD-1 monomer (human, UniProt Q15116 25-167, limits assumed)
# Experiment: ELISA on PD-1 monomer (FIG. 1)
# Description: ET901 ScFv-Fc (mouse IgG1 Fc) served as the negative control.
# Sequence of human PD-1 monomer (Q15116 25-167 limits assumed): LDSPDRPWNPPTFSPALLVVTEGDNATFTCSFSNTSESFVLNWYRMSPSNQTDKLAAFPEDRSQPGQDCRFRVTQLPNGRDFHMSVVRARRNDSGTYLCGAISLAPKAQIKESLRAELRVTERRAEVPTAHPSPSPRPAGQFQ
row,binding result,Binder
1,binds,B1
2,binds,B2
3,binds,B3

# Biological target: T1, human PD-1 on human T cells (human, UniProt Q15116 25-288)
# T1 construct: whole, on cells; In the functional rows it is the PD-1 of the transduced human peripheral blood T cells; also called PD-1 T cells; human T cells modified to overexpress human PD-1
# Experiment: flow cytometry, 1 µg/ml antibody, human T cells overexpressing human PD-1, goat anti-human Ig FITC
# Description: Flow cytometry was used to detect bound antibody using a goat anti-human Ig FITC conjugated antibody. […] Data shown is representative of one experiment.
# T1 sequence (Q15116 25-288): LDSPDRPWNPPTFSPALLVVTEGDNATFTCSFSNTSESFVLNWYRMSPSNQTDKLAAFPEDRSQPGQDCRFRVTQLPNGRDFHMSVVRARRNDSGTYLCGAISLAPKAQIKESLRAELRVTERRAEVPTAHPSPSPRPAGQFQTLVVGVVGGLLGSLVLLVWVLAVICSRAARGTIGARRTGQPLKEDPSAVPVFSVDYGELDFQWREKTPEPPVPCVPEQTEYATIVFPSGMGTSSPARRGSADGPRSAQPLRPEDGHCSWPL
row,percent of PD-1 human T cells bound,Binder
1,51%,B4
2,78%,B5
3,67%,B6
